The assay addresses KAP1 (UniProt Q13263). In words: GFP-Trap IP from nuclear lysate, coomassie gel. The settings on record: reference: GFP-HP1β wild type; sites S89,S91.

With “HP1β (from UniProt P83917) GFP-HP1β S89/91A”, the “binding against the reference” value is recorded as “weaker”.

For the origin of these results see paper PMC8287961.
